Measurements from paper PMC3458955 (2012).

Molecular target: CXCL12α (Homo sapiens, UniProt P48061)
Assay: total internal reflection ellipsometry (TIRE) on Ishikawa cell membranes; given as Ka

Kd: 714 pM
B1: CXCR4 (protein)
chain: MEGISIYTSDNYTEEMGSGDYDSMKEPCFREENANFNKIFLPTIYSIIFLTGIVGNGLVILVMGYQKKLRSMTDKYRLHLSVADLLFVITLPFWAVDAVANWYFGNFLCKAVHVIYTVNLYSSVLILAFISLDRYLAIVHATNSQRPRKLLAEKVVYVGVWIPALLLTIPDFIFANVSEADDRYICDRFYPNDLWVVVFQFQHIMVGLILPGIVILSCYCIIISKLSHSKGHQKRKALKTTVILILAFFACWLPYYIGISIDSFILLEIIKQGCEFENTVHKWISITEALAFFHCCLNPILYAFLGAKFKTSAQHALTSVSRGSSLKILSKGKRGGHSSVSTESESSSFHSS
